Results reported in the supplement of paper PMC10567573.

B1: ALDH8A1 (parent)
chain: FTGSQPTAERITQLSAPHCKKLSL
B2: EPB41L3 (parent)
chain: GSKFRYSGRTQAQTRRASALIDRP

Variants of: B1
Experiment: protein stability index of a GFP-peptide fusion (GPS, HEK-293T) (PSI 1-6); higher = more stable
Details: c terminus: a fixed tail appended
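Also: lentivirally expressed fusions sorted by FACS into six bins by GFP to DsRed ratio, PSI derived from sequencing read proportions per bin multiplied by bin number.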

Protein stability index of substitutions, site by site:
L22: H 2.29, I 2.76, Q 2.68, E 3.46, V 1.91, K 2.68, S 2.61, T 2.61, W 2.19, R 2.23, M 2.14, F 1.92, P 2.26, Y 2.68, C 2.27, A 2.85, N 2.54, G 2.88, D 2.67
H18: W 1.85, Y 2.14
S23: P 2.33, C 1.78, I 2.15, Y 2.66, E 2.56, G 1.97, R 1.79, Q 2.35, V 1.93, M 2.27, L 1.81, K 2.03, D 2.69, A 2.4, N 2.39, F 2.27, W 1.85, H 2.02, T 1.88
C19: D 2.73, S 1.96, Y 1.68, T 2.45, G 2.58, H 2.33, Q 2.79, W 1.6, I 1.66, V 2.04, M 1.96, N 2.16, E 2.79, A 2.35, L 1.91, K 2.75, F 2.91, R 2.45, P 2.06
L24: P 2.9, Q 2.9, T 2.56, F 1.97, W 1.93, K 2.5, M 2.46, D 3.23, R 2.52, S 2.95, E 2.96, Y 2.2, A 2.6, H 2.52, V 2.38, N 2.97, C 2.52, I 2.04, G 2.67
K20: C 2.09, N 2.53, S 2.26, D 2.57, I 1.61, R 1.78, G 2.85, L 1.84, W 1.61, Y 2.5, T 2.19, E 2.75, F 1.52, P 2.3, M 1.84, V 1.93, A 2.2, H 1.88, Q 2.8
K21: A 2.56, N 2.05, E 2.65, F 1.9, D 2.89, V 2.22, W 1.71, Y 2.1, Q 2.23, C 1.59, R 2.41, S 2.22, G 2.01, H 2.1, L 1.84, P 2.32, I 1.71, M 2.45, T 2.06

Variants of: B2
Experiment: as above
Details: c terminus: a fixed tail appended

Protein stability index of substitutions, site by site:
R9: W 2.33, F 2.81, N 3.7, G 3.32, M 2.85, S 3.44, A 2.88, T 3.01, K 2.97, Q 3.32, H 2.93, D 3.52, C 2.94, I 2.81, Y 2.4, L 2.92, E 3.53, P 3.87, V 2.85
F4: N 4.4, W 2.86, D 4.17, A 4.23, P 3.47, I 4, R 4.42, T 4.17, L 3.95, E 3.82, M 3.48, H 3.83, C 3.4, V 4.28, Q 4.47, Y 3.56, S 4.04, K 4.62, G 3.62
A12: D 3.37, L 3.38, G 3.11, F 2.04, K 3.15, C 3.32, H 2.82, E 3.2, I 3.07
K3: V 2.33, H 2.33, A 2.02, Y 1.89, Q 2.96, P 2.04, S 2.64, T 2.74, C 1.75, I 2.67, F 2.34, G 1.94, N 3.08, R 2.83, D 2.5, E 2.19, W 2.46, M 2.84, L 2.92
R5: C 2.67, M 4.43, E 4.08, Q 3.26, T 3.59, F 2.89, S 3.8, V 3.2, H 3.1, D 3.74, K 2.73, W 2.62, A 3.49, Y 2.82, G 3.8, P 3.27, L 2.71, N 3.23, I 3.07
Y6: A 3.85, E 4.13, D 4, L 3.15, W 3.49, K 4.13, R 4.23, N 3.67, I 3.62, F 2.96, S 3.85, G 3.91, C 3.51, H 3.22, T 4.35, V 3.86, Q 3.71, P 3.68, M 4.64
T10: Q 3.1, V 2.84, S 2.83, D 3.56, A 2.97, N 3.19, L 3.1, M 2.39, K 3.89, E 3.01, Y 2.39, C 1.97, W 1.82, R 3.62, P 3.74, I 2.37, F 2.68, G 3.66, H 3.27
S7: T 2.95, G 3.85, K 3.79, L 3.08, P 3.36, I 1.95, C 2.1, D 3.68, Q 2.86, H 2.94, Y 2.71, N 3.05, E 3.63, F 2.96, W 2.4, A 2.91, V 2.15, R 3.73, M 3.35
Q11: H 2.85, V 2.78, E 3.29, C 2.6, A 2.86, Y 2.64, M 1.94, N 3, K 3.11, P 3.46, R 3.78, I 2.95, W 1.75, T 2.57, F 2.45, S 2.18, D 3.09, L 2.5, G 3.16
G1: T 3.08, V 2.43, W 2.33, Y 1.85, S 2.33, L 2.53, K 3.33, R 3.17, M 2.58, A 3.02, P 2.99, F 2.12, D 3.06, E 3.62, I 2.53, N 3.34, H 3.03, C 2.88, Q 2.74
G8: W 2.1, C 1.72, T 4.1, E 3.52, M 3.88, K 3.44, S 3.46, A 3.41, D 3.02, V 3.07, L 3.44, R 4.01, Q 3.39, H 2.95, Y 2.7, P 3.43, N 3.13, I 2.93, F 2.96
S2: E 3.98, L 2.33, A 2.66, N 2.6, H 2.98, K 3.56, W 2.44, I 2.74, M 2.27, F 2.55, V 2.5, Y 2.68, C 2.44, R 2.51, G 3.31, D 4.02, T 2.82, P 2.6, Q 2.77
